According to patent publication US20240181006A1, “POLYPEPTIDES BINDING ADAMTS5, MMP13 AND AGGRECAN” (Merck Patent GmbH, priority 2017, published 2024):
Blank lines part the entries; values can stand above or below the molecule they belong to.

Columns and labels:
human MMP1 [1] = target: T1, human MMP1 (Homo sapiens, UniProt P03956); experiment: human MMP1 fluorogenic peptide assay (selectivity of 62C02); type: biochemical; conditions: data not shown
T1 sequence (P03956 100-469): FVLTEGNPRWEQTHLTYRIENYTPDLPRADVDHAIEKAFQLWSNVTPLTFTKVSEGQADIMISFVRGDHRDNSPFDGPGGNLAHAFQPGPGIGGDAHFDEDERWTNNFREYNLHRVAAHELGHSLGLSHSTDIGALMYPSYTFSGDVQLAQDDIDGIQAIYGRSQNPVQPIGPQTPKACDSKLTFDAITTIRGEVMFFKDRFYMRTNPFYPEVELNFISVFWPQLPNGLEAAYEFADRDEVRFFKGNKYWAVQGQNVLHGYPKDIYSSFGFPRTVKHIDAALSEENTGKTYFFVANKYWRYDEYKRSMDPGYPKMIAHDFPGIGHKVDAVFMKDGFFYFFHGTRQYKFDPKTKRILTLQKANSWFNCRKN
Description: (§1) In brief, the setup of human, cynomolgus, rat, dog and bovine MMP13 fluorogenic peptide assays, as well as human MMP1 and MMP14 fluorogenic peptide assays is as follows. Activated MMP was incubated with fluorogenic peptide substrate Mca-PLGL-Dpa-AR-NH2 (R&D Systems #ES001) and a ⅕ dilution of periplasmic extract or a dilution series of purified Nanobody/positive control (total volume=20 μl in assay buffer 50 mM Tris pH 7.5, 100 mM NaCl, 10 mM CaCl2), 0.01% Tween20), for 2 h at 37° C. The linear increase of fluorescence (v0-between 15 and 45 min incubation) was used as a measure for the enzymatic activity and % inhibition was calculated with the formula 100-100 (v0 in the presence of test Nanobody/v0 in the presence of negative control Nanobody (Cablys)).
(§2) In order to determine the selectivity of ISVD 62C02 for MMP13, fluorogenic peptide assays for MMP1 and MMPP14 were used. MMP1 and MMP14 are two closely related MMP family members. TIMP-2 was used as positive control in these assays. A similar set up as described in Example 1.1 was used.

human MMP14 [2] = target: T2, human MMP14 (Homo sapiens, UniProt P50281); experiment: human MMP14 fluorogenic peptide assay (selectivity of 62C02); type: biochemical; conditions: data not shown
Description: as §1, §2

Rat G1-IGD-G2 = experiment: periplasmic extract ELISA, rat Aggrecan G1-IGD-G2; type: binding
From the text: (§3) After the primary screening, initial assessment of binding via ELISA, determination of off-rate and species cross-reactivity, ISVD 114F08 was subjected to further characterization.

Bov G1-IGD-G2 = target: T3, Bov G1-IGD-G2 (Bos taurus, UniProt P13608); experiment: periplasmic extract ELISA, bovine Aggrecan G1-IGD-G2; type: binding
T3 construct: the recombinant G1-IGD-G2 region from human, cynomolgus, rat, dog and bovine Aggrecan
From the text: as §3

Dog G1-IGD-G2 = target: T4, Dog G1-IGD-G2 (Canis lupus familiaris, UniProt Q28343); experiment: periplasmic extract ELISA, dog Aggrecan G1-IGD-G2; type: binding
T4 construct: Dog G1-IGD-G2
From the text: as §3

Hu G1-IGD-G2 = target: T5, Hu G1-IGD-G2 (Homo sapiens, UniProt P16112); experiment: periplasmic extract ELISA, human Aggrecan G1-IGD-G2; type: binding
T5 construct: Hu G1-IGD-G2
From the text: as §3

Cy G1-IGD-G2 = experiment: periplasmic extract ELISA, cynomolgus Aggrecan G1-IGD-G2; type: binding
From the text: as §3

human MMP1 [3] = target: T1, human MMP1; experiment: FRET-based human MMP1 assay (selectivity of 02F03); type: biochemical; conditions: data not shown
Description: (§4) To confirm the selectivity of ISVD 02F03 for ADAMTS5, inhibition of the enzymatic activity of MMP1, MMP14 and ADAMTS4 was evaluated via FRET-based assays and a human ADAMTS4 AlphaLISA, with the respective enzymes.
(§5) Activated human MMP1 or MMP14 was incubated for 30 minutes at room temperature with 10 μl of dilution series of ISVD 02F03. After incubation, 20 μl of respectively 5 μM or 2.5 μM fluorogenic peptide substrate (Mca-PLGL-Dpa-AR-NH2 Fluorogenic MMP Substrate (R&D Systems cat #ES001)) was added. The ability of ISVD 02F03 to prevent MMP1- and MMP14-mediated cleavage was monitored every minute for 2 hours at 37° C. on a Tecan Infinite M1000 plate reader.

human MMP14 [4] = target: T2, human MMP14; experiment: FRET-based human MMP14 assay (selectivity of 02F03); type: biochemical; conditions: data not shown
Description: as §4, §5

Rat G1-IGD-G2, sequence (P07897 20-684 limits assumed): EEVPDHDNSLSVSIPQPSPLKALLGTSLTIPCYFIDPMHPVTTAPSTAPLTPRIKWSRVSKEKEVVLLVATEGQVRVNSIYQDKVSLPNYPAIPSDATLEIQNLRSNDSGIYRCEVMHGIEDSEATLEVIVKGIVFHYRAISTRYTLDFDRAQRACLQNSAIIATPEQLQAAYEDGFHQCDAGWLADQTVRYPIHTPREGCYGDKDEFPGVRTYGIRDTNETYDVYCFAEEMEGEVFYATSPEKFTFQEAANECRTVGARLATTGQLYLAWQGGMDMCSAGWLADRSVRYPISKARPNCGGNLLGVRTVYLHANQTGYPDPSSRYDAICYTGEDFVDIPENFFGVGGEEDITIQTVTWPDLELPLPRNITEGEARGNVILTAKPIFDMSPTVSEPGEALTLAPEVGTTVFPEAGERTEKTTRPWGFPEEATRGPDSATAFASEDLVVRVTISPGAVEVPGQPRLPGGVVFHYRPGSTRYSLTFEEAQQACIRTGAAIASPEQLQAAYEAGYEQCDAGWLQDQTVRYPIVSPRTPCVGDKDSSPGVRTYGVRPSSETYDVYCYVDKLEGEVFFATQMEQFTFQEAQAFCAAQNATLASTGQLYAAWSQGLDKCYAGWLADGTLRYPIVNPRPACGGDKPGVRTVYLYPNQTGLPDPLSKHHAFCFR
T3 sequence (P13608 20-685 limits assumed): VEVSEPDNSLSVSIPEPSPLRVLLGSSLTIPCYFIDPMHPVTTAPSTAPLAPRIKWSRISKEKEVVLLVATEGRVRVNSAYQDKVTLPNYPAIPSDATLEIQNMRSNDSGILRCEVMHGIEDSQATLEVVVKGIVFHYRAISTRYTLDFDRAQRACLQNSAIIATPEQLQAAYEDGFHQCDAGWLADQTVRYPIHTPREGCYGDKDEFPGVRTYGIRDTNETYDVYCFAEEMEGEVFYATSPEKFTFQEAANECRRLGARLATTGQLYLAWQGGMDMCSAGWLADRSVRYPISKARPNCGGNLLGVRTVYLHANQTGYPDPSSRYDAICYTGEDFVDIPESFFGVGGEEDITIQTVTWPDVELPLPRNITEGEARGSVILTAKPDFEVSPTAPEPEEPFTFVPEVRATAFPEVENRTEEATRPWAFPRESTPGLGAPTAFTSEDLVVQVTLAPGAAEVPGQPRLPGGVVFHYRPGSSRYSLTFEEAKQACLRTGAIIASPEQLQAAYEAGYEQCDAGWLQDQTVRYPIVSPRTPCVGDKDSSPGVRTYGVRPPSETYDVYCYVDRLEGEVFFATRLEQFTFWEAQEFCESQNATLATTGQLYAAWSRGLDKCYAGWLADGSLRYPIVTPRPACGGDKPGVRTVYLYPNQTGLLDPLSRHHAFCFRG
T5 sequence (P16112 20-676 limits assumed): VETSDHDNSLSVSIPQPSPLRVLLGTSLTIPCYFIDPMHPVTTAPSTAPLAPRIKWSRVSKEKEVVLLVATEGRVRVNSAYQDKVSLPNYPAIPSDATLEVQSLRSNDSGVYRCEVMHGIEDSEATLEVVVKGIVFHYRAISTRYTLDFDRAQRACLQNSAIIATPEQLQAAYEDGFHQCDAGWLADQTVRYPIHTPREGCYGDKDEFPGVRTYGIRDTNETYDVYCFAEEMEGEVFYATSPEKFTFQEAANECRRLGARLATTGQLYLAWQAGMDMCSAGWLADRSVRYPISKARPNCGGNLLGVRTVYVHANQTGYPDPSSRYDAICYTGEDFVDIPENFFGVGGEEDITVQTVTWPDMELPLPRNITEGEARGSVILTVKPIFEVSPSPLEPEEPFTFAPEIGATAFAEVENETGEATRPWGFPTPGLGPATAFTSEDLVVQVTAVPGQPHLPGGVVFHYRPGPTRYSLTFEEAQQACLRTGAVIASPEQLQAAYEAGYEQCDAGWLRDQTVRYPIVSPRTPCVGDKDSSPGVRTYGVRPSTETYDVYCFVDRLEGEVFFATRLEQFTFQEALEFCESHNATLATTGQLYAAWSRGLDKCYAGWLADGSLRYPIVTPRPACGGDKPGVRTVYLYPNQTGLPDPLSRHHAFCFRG
T4 sequence (Q28343 20-693): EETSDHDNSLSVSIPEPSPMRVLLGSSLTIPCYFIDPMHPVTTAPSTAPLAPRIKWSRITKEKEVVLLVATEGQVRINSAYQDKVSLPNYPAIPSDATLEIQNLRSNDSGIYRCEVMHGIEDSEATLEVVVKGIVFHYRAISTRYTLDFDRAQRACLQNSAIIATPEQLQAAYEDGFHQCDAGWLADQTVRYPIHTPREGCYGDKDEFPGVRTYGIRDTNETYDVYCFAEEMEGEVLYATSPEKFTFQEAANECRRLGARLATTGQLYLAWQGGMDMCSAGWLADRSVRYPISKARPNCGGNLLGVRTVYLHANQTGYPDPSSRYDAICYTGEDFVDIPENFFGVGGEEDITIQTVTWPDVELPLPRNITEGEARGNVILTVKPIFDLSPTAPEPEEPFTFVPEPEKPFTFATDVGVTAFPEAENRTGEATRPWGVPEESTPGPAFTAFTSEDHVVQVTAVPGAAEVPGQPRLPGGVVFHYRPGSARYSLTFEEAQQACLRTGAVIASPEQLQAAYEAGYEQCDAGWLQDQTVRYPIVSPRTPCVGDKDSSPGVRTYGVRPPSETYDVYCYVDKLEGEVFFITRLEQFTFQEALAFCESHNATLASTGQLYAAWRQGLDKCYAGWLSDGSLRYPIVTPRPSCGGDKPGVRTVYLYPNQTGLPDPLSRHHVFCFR

- MMP1 inhibition (human MMP1 [1]): no MMP1 or MMP14 inhibition
- MMP14 inhibition (human MMP14 [2]): no MMP1 or MMP14 inhibition
B1: ISVD 62C02: MMP13 specific immunoglobulin single variable domain (protein)
VHH: EVQLVESGGGVVQPGGSLRLSCAASGFAFSAAYMSWVRQAPGKGLEWVSSISDDGSKTYYADSVKGRFTISRDNSKNTVYLQMNSLRPEDTALYYCNTGYGATTTRPGRYWGQGTLVTVSS
modifications: Description of Artificial Sequence: Synthetic anti-MMP13 immunoglobulin single variable domain (ISVD)

- Periplasmic extract ELISA OD 450 nm, Bov G1-IGD-G2 (Bov G1-IGD-G2): 1.18
- Periplasmic extract ELISA OD 450 nm, Dog G1-IGD-G2 (Dog G1-IGD-G2): 1.90
- Periplasmic extract ELISA OD 450 nm, Hu G1-IGD-G2 (Hu G1-IGD-G2): 2.38
B2: ISVD 114F08: Aggrecan-specific immunoglobulin single variable domain (CAP), binds G1 domain (protein)
VHH: EVQLVESGGGVVQPGGSLRLSCAASGSTFIINVVRWYRRAPGKQRELVATISSGGNANYVDSVRGRFTISRDNSKNTVYLQMNSLRPEDTALYYCNVPTTHYGGVYYGPYWGQGTLVTVSS
modifications: Description of Artificial Sequence: Synthetic anti-Aggrecan immunoglobulin single variable domain (ISVD)
- Periplasmic extract ELISA OD 450 nm, Rat G1-IGD-G2 (Rat G1-IGD-G2): 2.05
- Periplasmic extract ELISA OD 450 nm, Cy G1-IGD-G2 (Cy G1-IGD-G2): 2.32

- inhibition of MMP1 activity (human MMP1 [3]): inhibited
- inhibition of MMP14 activity (human MMP14 [4]): inhibited
B3: TIMP3: natural inhibitor of MMP1 and MMP14 (protein)
chain: CTCSPSHPQDAFCNSDIVIRAKVVGKKLVKEGPFGTLVYTIKQMKMYRGFTKMPHVQYIHTEASESLCGLKLEVNKYQYLLTGRVYDGKMYTGLCNFVERWDQLTLSQRKGLNYRYHLGCNCKIKSCYYLPCFVTSKNECLWTDMLSNFGYPGYQSKHYACIRQKGGYCSWYRGWAPPDKSIINATDP
